One block for each molecule: values may come before it.
Columns and labels:
[1] = biological target: T1, HcKCR2 (Hyphochytrium catenoides, UniProt Z9CM73ZIR3); experiment: cryo-EM structure; type: binding; conditions: dark state, nanodisc, pH 7.5; covalent Schiff base to K233; 6-s-cis conformer
T1 construct: M1-D265; MSP1E3D1/SoyPC nanodisc; residues 2-260 modelled (initiator Met lost); homotrimer
T1 sequence (Z9CM73ZIR3 1-265): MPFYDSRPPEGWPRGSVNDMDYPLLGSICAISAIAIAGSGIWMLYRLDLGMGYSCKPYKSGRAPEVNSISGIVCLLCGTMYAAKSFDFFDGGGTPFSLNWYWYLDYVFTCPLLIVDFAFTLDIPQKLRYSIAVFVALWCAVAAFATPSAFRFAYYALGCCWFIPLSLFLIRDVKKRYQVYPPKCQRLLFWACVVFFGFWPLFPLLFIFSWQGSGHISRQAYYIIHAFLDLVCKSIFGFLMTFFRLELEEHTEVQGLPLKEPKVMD

[2] = biological target: HcKCR1 WT (K+-selective channelrhodopsin 1 from Hyphochytrium catenoides) (Hyphochytrium catenoides); experiment: cryo-EM structure; dark state; protein in MSP1E3D1/SoyPC nanodiscs, 20 mM HEPES-NaOH pH 7.5, 100 mM NaCl; C3 symmetry
[3] = biological target: HcKCR2 WT (K+-selective channelrhodopsin 2 from Hyphochytrium catenoides) (Hyphochytrium catenoides); experiment: as above

Molecule: CC1=C(/C=C/C(C)=C/C=C/C(C)=C/C=O)C(C)(C)CCC1 [all-trans-retinal]
cryo-EM structure [1]: HcKCR2 thus represents the initial naturally occurring microbial rhodopsin with experimentally demonstrated 6-s-cis-retinal configuration

stoichiometry N [2]: 3
Molecule: HcKCR1 WT (K+-selective channelrhodopsin 1 from Hyphochytrium catenoides) (domain or fragment)

stoichiometry N [3]: 3
Molecule: HcKCR2 WT (K+-selective channelrhodopsin 2 from Hyphochytrium catenoides) (domain or fragment)
